# Results published in the RNAGym collection of RNA variant scans (doi:10.7554/elife.90254).
# B1: OR4K15 (parent)
# chain: GUUAACGGUCAUAGGCCAUGGAAACUAGGAGCACCAUUUCGCUGCCAGUGAAGAAAUGAACAAAGAAAAUCUGGGCCAGGCAGGCAUCAAAAGAAAUAGUCUUGCGCUCAACCAGAAAGUCUGUAAUCAUUUUAAGGGUA
# Variants of: B1
# Assay: self-cleavage, relative activity (ratio to wild type); higher = more cleavage; in vitro, sequencing; the parent is a self-cleaving ribozyme
row,Variant,self-cleavage
1,GUUAACGGUCAUAGGCCAUGGAACCUAGGAGCACCAUUUCGCUGCCAGUGAAGAAAUGAACAAAGAAAAUCUGGGCCAGGCAGGCAUCAAAAGAAAUAGUCUUGCGCUCAACCAGAAAGUCUGUGAUCAUUUUAAGGGUA,0.43
2,GUUAACGGUCAUAGGCCAUGGAACCUAGGAGCACCAUUUCGCUGCCAGUGAAGAAAUGAACAAAGAAAAUCUGGGCCAGGCAGGCAUCAAAAGAAAUAGUCUUGCGCUCAACCAGAAAGUCUGUAAUCAUUUUAAGGGCA,2.1
3,GUUAACGGUCAUAGGCCAUGGAAGCUAGGAGCACCGUUUCGCUGCCAGUGAAGAAAUGAACAAAGAAAAUCUGGGCCAGGCAGGCAUCAAAAGAAAUAGUCUUGCGCUCAACCAGAAAGUCUGUAAUCAUUUUAAGGGUA,1.15
4,GUUAACGGUCAUAGGCCAUGGAAGCUAGGAGCACCAUUUCGCUGCCAGUGGAGAAAUGAACAAAGAAAAUCUGGGCCAGGCAGGCAUCAAAAGAAAUAGUCUUGCGCUCAACCAGAAAGUCUGUAAUCAUUUUAAGGGUA,1.27
5,GUUAACGGUCAUAGGCCAUGGAAGCUAGGAGCACCAUUUCGCUGCCAGUGUAGAAAUGAACAAAGAAAAUCUGGGCCAGGCAGGCAUCAAAAGAAAUAGUCUUGCGCUCAACCAGAAAGUCUGUAAUCAUUUUAAGGGUA,1.19
6,GUUAACGGUCAUAGGCCAUGGAACCUAGGAGCACCAUUUCGCUGCCAGUGAAGAAAUGAACAAAGAAAAUCUGGGCCAGACAGGCAUCAAAAGAAAUAGUCUUGCGCUCAACCAGAAAGUCUGUAAUCAUUUUAAGGGUA,0.19
7,GUUAACGGUCAUAGGCCAUGGAACCUAGGAGCACCAUUUCGCUGCCAGUGAAGAAAUGAACAAAGAAGAUCUGGGCCAGGCAGGCAUCAAAAGAAAUAGUCUUGCGCUCAACCAGAAAGUCUGUAAUCAUUUUAAGGGUA,1.52
8,GUUAACGGUCAUAGGCCAUGGAAGCUAGGAGCACCAUUUCGCUGCCAGUGAUGAAAUGAACAAAGAAAAUCUGGGCCAGGCAGGCAUCAAAAGAAAUAGUCUUGCGCUCAACCAGAAAGUCUGUAAUCAUUUUAAGGGUA,0.64
9,GUUAACGGUCAUAGGCCAUGGAACCUAGGAGCACCAUUUCGCUGCCAGCGAAGAAAUGAACAAAGAAAAUCUGGGCCAGGCAGGCAUCAAAAGAAAUAGUCUUGCGCUCAACCAGAAAGUCUGUAAUCAUUUUAAGGGUA,1.53
10,GUUAACGGUCAUAGGCCAUGGAACCUAGGAGCACCAUUUCGCUGCCAGUGAAGAAAUGAACAAAGAAAAUCUGGGCCAGGCAGGCAUCAAAAGAAAUAGUCUUGCGCUCAACCAGAAAGUCUGUAAUCAUCUUAAGGGUA,1.82
11,GUUAACGGUCAUAGGCCAUGGAACCUAGGAGCACCAUUUCGCUGCCAGUGAAGAAAUGAACGAAGAAAAUCUGGGCCAGGCAGGCAUCAAAAGAAAUAGUCUUGCGCUCAACCAGAAAGUCUGUAAUCAUUUUAAGGGUA,1.2
12,GUUAACGGUCAUAGGCCAUGGAACCUAGGAGCACCAUUUCGCUGCCAGUGAAGAAAUGGACAAAGAAAAUCUGGGCCAGGCAGGCAUCAAAAGAAAUAGUCUUGCGCUCAACCAGAAAGUCUGUAAUCAUUUUAAGGGUA,1.51
13,GUUAACGGUCAUAGGCCAUGGAAGCUAGGAGCACCAUUUCGCUGCCAGUGAAGAAAUGAACAAAGAAAAUCUGGGCCAGGCAGGCAUCAAAAGAAAUAGUCUUGCGCUCAACCAGAAAGUCUGUAAUCAUUUUAAGGGUA,1.09
14,GUUAACGGUCAUAGGCCAUGGAACCUAGGAGCACCAUUUCGCUGCCAGUGAAGAAAUGAACAAAGAAAAUCAGGGCCAGGCAGGCAUCAAAAGAAAUAGUCUUGCGCUCAACCAGAAAGUCUGUAAUCAUUUUAAGGGUA,0.28
15,GUUAACGGUCAUAGGCCAUGGAACCUAGGAGCACCAUUUCGCUGCCAGUGAAGAAAUGAACAAAGAAAAUCUGGGCCAGGCAGGCAUCAAAAGAAAUAGUCUUGCGCUCAACCAGAAAGUCUGUAACCAUUUUAAGGGUA,1.03
16,GUUAACGGUCAUAGGCCAUGGAACCUAGGAGCACCAUUUCGCUGCCAGUGAAGAAAUGAACAAAGAAAAUCUGGGCCAGGCAGGCAUCAAAAGAAAUAGUCUUACGCUCAACCAGAAAGUCUGUAAUCAUUUUAAGGGUA,0.01
17,GUUAACGGUCAUAGGCCAUGGAAGCUAGGAGCCCCAUUUCGCUGCCAGUGAAGAAAUGAACAAAGAAAAUCUGGGCCAGGCAGGCAUCAAAAGAAAUAGUCUUGCGCUCAACCAGAAAGUCUGUAAUCAUUUUAAGGGUA,1.62
18,GUUAACGGUCAUAGGCCAUGGAACCUAGGAGCACCAUUUCGCUGCCAGUGAAGAAAUGAACAAAGAAAAUCUGGGCCCGGCAGGCAUCAAAAGAAAUAGUCUUGCGCUCAACCAGAAAGUCUGUAAUCAUUUUAAGGGUA,0.36
19,GUUAACGGUCAUAGGCCAUGGAACCUAGGAGCACCAUUUCGCUGCCAGUGAAGAAAUGAACAAAGAAAAUCUGGGCCGGGCAGGCAUCAAAAGAAAUAGUCUUGCGCUCAACCAGAAAGUCUGUAAUCAUUUUAAGGGUA,0.32
20,GUUAACGGUCAUAGGCCAUGGAACCUAGGAGCACCAUUUCGCUGCCAGUGAAGAAAUGAACAAAGAAAAUCUGGGCCAGGCAGGCAUCAAAAGAAAUAGUCUUGCGCUCAACCAGAAGGUCUGUAAUCAUUUUAAGGGUA,0.96
21,GUUAACGGUCAUAGGCCAUGGAACCCAGGAGCACCAUUUCGCUGCCAGUGAAGAAAUGAACAAAGAAAAUCUGGGCCAGGCAGGCAUCAAAAGAAAUAGUCUUGCGCUCAACCAGAAAGUCUGUAAUCAUUUUAAGGGUA,1.52

row,Variant,self-cleavage
1,GUUAACGGUCAUAGGCCAUGGAACCUAGGAGCACCAUUUCGCUGCCAGUGAAGAAAUGAACAAAGAAAAUCUGGGCCAGGCGGGCAUCAAAAGAAAUAGUCUUGCGCUCAACCAGAAAGUCUGUAAUCAUUUUAAGGGUA,0.62
2,GUUAACGGUCAUAGGCCAUGGAACCUAGGAGCACCAUUUCGCUGCCAGUGAAGAAAUGAACAAAGAAAAUCUGGGCCAGGCAGGCAUCAAAAGAAAUAGCCUUGCGCUCAACCAGAAAGUCUGUAAUCAUUUUAAGGGUA,1.84
3,GUUAACGGUCAUAGGCCAUGGAACCUAGGAGCACCAUUUCGCUGCCAGUGAAGGAAUGAACAAAGAAAAUCUGGGCCAGGCAGGCAUCAAAAGAAAUAGUCUUGCGCUCAACCAGAAAGUCUGUAAUCAUUUUAAGGGUA,1.21
4,GUUAACGGUCAUAGGCCAUGGAACCUAGGAGCACCAUUUCGCUGCCAGUGAAGAAAUGAACAAAGAAAAUCUGGGCCAGGCAGGCAUCAAAAGAAAUAGUCCUGCGCUCAACCAGAAAGUCUGUAAUCAUUUUAAGGGUA,1.22
5,GUUAACGGUCAUAGGCCAUGGAAGCUAGGAGCACCAUUUCGCUGCCUGUGAAGAAAUGAACAAAGAAAAUCUGGGCCAGGCAGGCAUCAAAAGAAAUAGUCUUGCGCUCAACCAGAAAGUCUGUAAUCAUUUUAAGGGUA,0.96
6,GUUAACGGUCAUAGGCCAUGGAAGCUAGGAGCACCAUUUCGCUGCCAGUGAAGUAAUGAACAAAGAAAAUCUGGGCCAGGCAGGCAUCAAAAGAAAUAGUCUUGCGCUCAACCAGAAAGUCUGUAAUCAUUUUAAGGGUA,1.48
7,GUUAACGGUCAUAGGCCAUGGAACCUAGGAGCACCAUUUCGCUGCCAGUGAAGAAAUGAACAAAGAAAAUCUGGGCCAGGCAGGCAUCAAAGGAAAUAGUCUUGCGCUCAACCAGAAAGUCUGUAAUCAUUUUAAGGGUA,1.9
8,GUUAACGGUCAUAGGCCAUGGAACCUAGGAGCACCAUUUCGCUGCCAGUGAAGAAAUGAACAAAGAAAAUCUGGGCCAGGCAGGCAUCAAAAGAAAUAGUCUUGCGCCCAACCAGAAAGUCUGUAAUCAUUUUAAGGGUA,0.01
9,GUUAACGGUCAUAGGCCAUGGAACCUAGGAGCACCAUUUCGCUGCCAGUGAAGAAAUGAACAAAGAAAAUCUGGGCCAGGCAGGCAUCAAAAGAAAUAGUCUUGCGCACAACCAGAAAGUCUGUAAUCAUUUUAAGGGUA,0.01
10,GUUAACGGUCAUAGGCCAUGGAACCUAGGAGCACCAUUUCGCUGCCAGUGAAGAAAUGAACAAAGAAAAUCUGGGCCAGGCAGGCAUCGAAAGAAAUAGUCUUGCGCUCAACCAGAAAGUCUGUAAUCAUUUUAAGGGUA,1.68
11,GUUAACGGUCAUAGGCCAUGGAAGCUAGGGGCACCAUUUCGCUGCCAGUGAAGAAAUGAACAAAGAAAAUCUGGGCCAGGCAGGCAUCAAAAGAAAUAGUCUUGCGCUCAACCAGAAAGUCUGUAAUCAUUUUAAGGGUA,1.01
12,GUUAACGGUCAUAGGCCAUGGAAGCUAGGCGCACCAUUUCGCUGCCAGUGAAGAAAUGAACAAAGAAAAUCUGGGCCAGGCAGGCAUCAAAAGAAAUAGUCUUGCGCUCAACCAGAAAGUCUGUAAUCAUUUUAAGGGUA,1.22
13,GUUAACGGUCAUAGGCCAUGGAACCUAGGAGCACCAUUUCGCCGCCAGUGAAGAAAUGAACAAAGAAAAUCUGGGCCAGGCAGGCAUCAAAAGAAAUAGUCUUGCGCUCAACCAGAAAGUCUGUAAUCAUUUUAAGGGUA,1.9
14,GUUAACGGUCAUAGGCCAUGGAACCUAGGAGCACCAUUUCGCAGCCAGUGAAGAAAUGAACAAAGAAAAUCUGGGCCAGGCAGGCAUCAAAAGAAAUAGUCUUGCGCUCAACCAGAAAGUCUGUAAUCAUUUUAAGGGUA,0.67
15,GUUAACGGUCAUAGGCCAUGGAACCUAGGAGCACCAUUUCGCUGCCAGUGAAGAAAUGAGCAAAGAAAAUCUGGGCCAGGCAGGCAUCAAAAGAAAUAGUCUUGCGCUCAACCAGAAAGUCUGUAAUCAUUUUAAGGGUA,1.17
16,GUUAACGGUCAUAGGCCAUGGAACCUAGGAGCACCAUUUCGCUGCCAGUGAAGAAAUGAACAAAGGAAAUCUGGGCCAGGCAGGCAUCAAAAGAAAUAGUCUUGCGCUCAACCAGAAAGUCUGUAAUCAUUUUAAGGGUA,1.16
17,GUUAACGGUCAUAGGCCAUGGAACCUAGGAGCACCAUUUCGCUGCCAGUGAAGAAAUGAACAAAGAAAAUCUGGGCCAGGCAGGCAUCAAAAGAAAUAGUCUUGCGCUCAACCAGAAAGUCUGUAGUCAUUUUAAGGGUA,0
18,GUUAACGGUCAUAGGCCAUGGAACCUAGGAGCACCAUCUCGCUGCCAGUGAAGAAAUGAACAAAGAAAAUCUGGGCCAGGCAGGCAUCAAAAGAAAUAGUCUUGCGCUCAACCAGAAAGUCUGUAAUCAUUUUAAGGGUA,1.26
19,GUUAACGGUCAUAGGCCAUGGAACCUAGGAGCACCAUUUCGCUGCCAGUGAAGAAAAGAACAAAGAAAAUCUGGGCCAGGCAGGCAUCAAAAGAAAUAGUCUUGCGCUCAACCAGAAAGUCUGUAAUCAUUUUAAGGGUA,1.21
20,GUUAACGGUCAUAGGCCAUGGAACCUAGGAGCACCAUUUCGCUGCCAGUGAAGAAAUGAACAAAGAAAAUCUGGGCCAGGCAGGCAUCAAAAGGAAUAGUCUUGCGCUCAACCAGAAAGUCUGUAAUCAUUUUAAGGGUA,1.63
